Experimental findings from US20120225828A1 are described below.

For experiment [1], the target named is recombinant human melanocortin-4 receptor hMCR-4 (human) (UniProt P32245). Kind of experiment: competition with [I125]-NDP-α-MSH; HEK-293 hMCR-4 membrane homogenates.
Experiment [2] has as its target recombinant human melanocortin-1 receptor hMCR-1a (human) (UniProt Q01726). Nature of the experiment: competition with [I125]-NDP-α-MSH; HEK-293 hMCR-1a membrane homogenates.

Bridge positions count the residues as written; N and C are the ends. Square brackets hold non-standard residues; d marks the D form. Nle = CCCC[C@H](N)C(=O)O; Dab = NCC[C@H](N)C(=O)O

Sequence of recombinant human melanocortin-1 receptor hMCR-1a (human) (Q01726 whole entry): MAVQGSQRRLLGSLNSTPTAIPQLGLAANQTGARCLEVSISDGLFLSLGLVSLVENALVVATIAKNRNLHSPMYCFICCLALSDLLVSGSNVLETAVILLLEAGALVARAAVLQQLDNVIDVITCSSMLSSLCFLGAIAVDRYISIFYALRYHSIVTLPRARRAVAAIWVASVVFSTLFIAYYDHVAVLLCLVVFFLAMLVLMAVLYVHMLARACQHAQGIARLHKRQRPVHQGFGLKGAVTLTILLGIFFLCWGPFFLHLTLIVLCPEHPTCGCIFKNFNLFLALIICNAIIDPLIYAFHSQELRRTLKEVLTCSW
Sequence of recombinant human melanocortin-4 receptor hMCR-4 (human) (P32245 whole entry): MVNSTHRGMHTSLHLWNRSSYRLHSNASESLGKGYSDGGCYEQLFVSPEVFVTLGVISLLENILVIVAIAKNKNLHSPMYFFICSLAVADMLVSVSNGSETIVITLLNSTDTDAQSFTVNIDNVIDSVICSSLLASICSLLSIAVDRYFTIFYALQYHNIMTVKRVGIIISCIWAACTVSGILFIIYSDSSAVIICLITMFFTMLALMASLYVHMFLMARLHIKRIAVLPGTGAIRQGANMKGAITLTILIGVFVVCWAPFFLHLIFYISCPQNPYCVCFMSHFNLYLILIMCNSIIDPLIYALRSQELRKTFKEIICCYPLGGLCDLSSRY

B1: Ac-Nle-cyclo(Glu-His-D-Phe-Ala-Dab)-Trp-NH2 (SEQ ID NO: 51) (peptide)
peptide: Ac-[Nle]EH[dF]A[Dab]W-NH2
modifications: lactam 2-6
SMILES: CCCC[C@H](NC(C)=O)C(=O)N[C@H]1CCC(=O)NCC[C@@H](C(=O)N[C@@H](Cc2c[nH]c3ccccc23)C(N)=O)NC(=O)[C@H](C)NC(=O)[C@@H](Cc2ccccc2)NC(=O)[C@H](Cc2c[nH]cn2)NC1=O
Turning to B1, the results for the Ki in experiment [1] and in experiment [2] were 10 µM and 0.08 nM, respectively.

B2: Ac-Nle-cyclo(Glu-His-D-Phe-Arg-Dab)-Lys-NH2 (SEQ ID NO: 55) (peptide)
peptide: Ac-[Nle]EH[dF]R[Dab]K-NH2
modifications: lactam 2-6
SMILES: CCCC[C@H](NC(C)=O)C(=O)N[C@H]1CCC(=O)NCC[C@@H](C(=O)N[C@@H](CCCCN)C(N)=O)NC(=O)[C@H](CCCNC(=N)N)NC(=O)[C@@H](Cc2ccccc2)NC(=O)[C@H](Cc2c[nH]cn2)NC1=O
For the molecule B2, the inhibition constant (Ki) (usually the equilibrium dissociation constant of an inhibitor or competing ligand from its target) in experiment [1] was found to be 7.38 µM; in experiment [2], 2 nM.

B3: Ac-Nle-cyclo(Glu-His-D-Phe-Gly-Dab)-Trp-NH2 (SEQ ID NO: 50) (peptide)
peptide: Ac-[Nle]EH[dF]G[Dab]W-NH2
modifications: lactam 2-6
SMILES: CCCC[C@H](NC(C)=O)C(=O)N[C@H]1CCC(=O)NCC[C@@H](C(=O)N[C@@H](Cc2c[nH]c3ccccc23)C(N)=O)NC(=O)CNC(=O)[C@@H](Cc2ccccc2)NC(=O)[C@H](Cc2c[nH]cn2)NC1=O
For B3, the figures for the inhibitory constant (Ki) in experiment [1] and in experiment [2] were 10 µM and 9 nM, respectively.

B4: Ac-Nle-cyclo(Glu-His-D-Phe-Ala-Dab)-Trp-NH2 (peptide)
peptide: Ac-[Nle]EH[dF]A[Dab]W-NH2
modifications: lactam 2-6
SMILES: CCCC[C@H](NC(C)=O)C(=O)N[C@H]1CCC(=O)NCC[C@@H](C(=O)N[C@@H](Cc2c[nH]c3ccccc23)C(N)=O)NC(=O)[C@H](C)NC(=O)[C@@H](Cc2ccccc2)NC(=O)[C@H](Cc2c[nH]cn2)NC1=O
With B4, the inhibitory constant (Ki) in experiment [2] is 0.08 nM.
